Our source for the IC50 values is publication PMC3334467 (Immunity, 2012).

The target of the assay is T1, MBP-AIM2 HIN domain (human, UniProt O14862 144-343).
T1 sequence (looked up): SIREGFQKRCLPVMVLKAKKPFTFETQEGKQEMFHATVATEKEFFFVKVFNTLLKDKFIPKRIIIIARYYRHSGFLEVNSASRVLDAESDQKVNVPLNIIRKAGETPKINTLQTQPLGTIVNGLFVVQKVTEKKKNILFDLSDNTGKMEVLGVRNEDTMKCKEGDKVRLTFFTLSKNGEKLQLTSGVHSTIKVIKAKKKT
Description: fluorescence polarisation. In general terms: Polarisation of emitted light reports the rotation of a fluorescent probe.

B1: AIM2 PYD domain, wild type (residues 1–107), as used in the FP inhibition assay (domain or fragment, human, UniProt O14862 1-107, looked up)
chain: MESKYKEILLLTGLDNITDEELDRFKFFLSDEFNIATGKLHTANRIQVATLMIQNAGAVSAVMKTIRIFQKLNYMLLAKRLQEEKEKVDKQYKSVTKPKPLSQAEMS
Regarding B1, the IC50 (as a rule, the point on the concentration scale where inhibition reaches its midpoint) turned out to be 11 µM.
